As usually defined, the Kd is a measure of binding affinity in units of concentration. Lower therefore signals tighter binding.

From paper PMC7079142 come the findings set out here.

Data set [1] deals with T1, StrepII-SUMO-DUX4-His6 (Homo sapiens, UniProt Q9UBX2 1-424). The data set can be described thus: TR-FRET competition. (In general: TR-FRET usually uses a lanthanide donor and a delayed reading to cut background.)
Data set [2] has as its target T1, StrepII-SUMO-DUX4-His6. Nature of the data set: TR-FRET competition. The source holds these as a separate data set.
Data set [3] deals with T1, StrepII-SUMO-DUX4-His6. Nature of the data set: TR-FRET competition. The source holds these as a separate data set.
Data set [4] addresses T1, StrepII-SUMO-DUX4-His6. Nature of the data set: TR-FRET competition. The source holds these as a separate data set.
Data set [5] has as its target T1, StrepII-SUMO-DUX4-His6. The data set can be described thus: TR-FRET competition. This is another data set of the same source.
The target of data set [6] is T1, StrepII-SUMO-DUX4-His6. Nature of the data set: TR-FRET competition. The source holds these as a separate data set.
In data set [7] the target is T1, StrepII-SUMO-DUX4-His6. The data set can be described thus: TR-FRET competition. The source holds these as a separate data set.
Data set [8] concerns the target T1, StrepII-SUMO-DUX4-His6. The data set can be described thus: fluorescence polarization. On the technique in general: Polarisation of emitted light reports the rotation of a fluorescent probe.
Data set [9] has as its target T1, StrepII-SUMO-DUX4-His6. The data set can be described thus: TR-FRET competition. The source holds these as a separate data set.
The target of data set [10] is T2, PROP1-cMyc-DDK (UniProt O75360 1-226). The data set can be described thus: TR-FRET competition.
T2 sequence (O75360 whole entry): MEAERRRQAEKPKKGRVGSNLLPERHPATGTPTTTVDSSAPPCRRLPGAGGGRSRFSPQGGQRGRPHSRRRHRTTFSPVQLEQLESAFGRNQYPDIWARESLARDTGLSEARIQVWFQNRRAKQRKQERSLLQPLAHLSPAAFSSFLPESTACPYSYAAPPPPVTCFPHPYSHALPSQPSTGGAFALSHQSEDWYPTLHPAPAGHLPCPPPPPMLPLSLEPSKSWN
In data set [11] the target is T1, StrepII-SUMO-DUX4-His6. Nature of the data set: TR-FRET competition. This is another data set of the same source.
Data set [12] addresses T1, StrepII-SUMO-DUX4-His6. The data set can be described thus: TR-FRET competition. The source holds these as a separate data set.
The target of data set [13] is T2, PROP1-cMyc-DDK. Nature of the data set: TR-FRET competition. This is another data set of the same source.
Data set [14] has as its target T1, StrepII-SUMO-DUX4-His6. The data set can be described thus: EMSA.
Data set [15] addresses T1, StrepII-SUMO-DUX4-His6. The data set can be described thus: TR-FRET competition. This is another data set of the same source.
Data set [16] concerns the target T2, PROP1-cMyc-DDK. The data set can be described thus: TR-FRET competition. The source holds these as a separate data set.
The target in data set [17] is T1, StrepII-SUMO-DUX4-His6. The data set can be described thus: TR-FRET competition. This is another data set of the same source.
Data set [18] deals with T1, StrepII-SUMO-DUX4-His6. The data set can be described thus: TR-FRET competition. This is another data set of the same source.

Read-outs that look alike come from different tables or passages of the source.

T1 sequence (Q9UBX2 whole entry): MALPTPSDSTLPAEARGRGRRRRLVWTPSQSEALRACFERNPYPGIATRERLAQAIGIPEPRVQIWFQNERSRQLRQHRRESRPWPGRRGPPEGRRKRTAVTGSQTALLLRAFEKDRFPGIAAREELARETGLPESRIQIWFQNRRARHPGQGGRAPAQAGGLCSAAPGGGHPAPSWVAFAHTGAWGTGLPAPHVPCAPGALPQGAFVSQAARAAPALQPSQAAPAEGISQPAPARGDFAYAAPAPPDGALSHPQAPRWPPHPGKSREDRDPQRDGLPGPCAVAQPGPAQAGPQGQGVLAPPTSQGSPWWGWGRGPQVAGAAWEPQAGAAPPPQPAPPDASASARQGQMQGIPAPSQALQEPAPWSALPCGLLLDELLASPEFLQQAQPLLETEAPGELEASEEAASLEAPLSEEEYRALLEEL

Regarding GCTAATCTAATCAACCGCAGGTTGATTAGTTTATTAGC (structured_DNA) [DUX4_TCT_R7TTT], the binding result in data set [1] was “binds”.

As for GCTAATCTAACTCAACCGCAGGTTGATTAGATTAGC (structured_DNA) [DUX4_TCT_F8C], the binding result in data set [2] is on record as “binds”. As for GCTAATCTAATTCAACCGCAGGTTGATTAGATTAGC (structured_DNA) [DUX4_TCT_F8T], the binding result in data set [3] was “binds”. As for GCTAATCTAAGTCAACCGCAGGTTGATTAGATTAGC (structured_DNA) [DUX4_TCT_F8G], the binding result in data set [3] is given as “binds”.

Turning to GCTAATCTAACCCCTCAACCGCAGGTTGATTAGATTAGC (structured_DNA) [DUX4_TCT_F8CCCC], the binding result in data set [4] is on record as “binds”. As for GCATAAACTTAATCAAGACCAGGTCATTGATTAACGCTCGTTTGG (structured_DNA) [SELEX#1], the binding result in data set [5] was “binds”.

Turning to GCTAATCTAATCAACCGCAGGTTGATTAGCCCCATTAGC (structured_DNA) [DUX4_TCT_R7CCCC], the binding result in [6] is given as “binds”. In the case of GCTAATCTAACCTCAACCGCAGGTTGATTAGATTAGC (structured_DNA) [DUX4_TCT_F8CC], the binding result in [7] is “binds”.

Regarding GCTAATCTAACTTCAACCGCAGGTTGATTAGATTAGC (structured_DNA) [DUX4_TCT_F8CT], in data set [4], the binding result was “binds”.

The molecule GCTAACTTAATCAACCGCAGGTTGATTAGCCCATTAGC (structured_DNA) [Kd aptamer as printed in text and Fig 7] showed an equilibrium dissociation constant (Kd) in [8] of approximately 0.02 µM. With GCTAATCTAATCAACCGCAGGTTGATTAGCCCATTAGC (structured_DNA) [DUX4_TCT_R7CCC], in data set [9], the binding signal was ~10 fold affinity vs loop-free template. As to GCTAACTTAATCAACCGCAGGTTGATTAACCCGTTAGC (structured_DNA) [DUX4_CTT_R7CCC (DUX4_CTT_loop)], the values for the binding signal in data set [10], in data set [11] and in data set [12] were ~5 fold IC50 gain vs DUX4_CTT, approximately 20 fold affinity vs backbone and ~21 fold IC50 gain vs DUX4_CTT, respectively. On to GCTAATCTAACCCTCAACCGCAGGTTGATTAGATTAGC (structured_DNA) [DUX4_TCT_F8CCC], for which the binding result in data set [4] is recorded as “binds”. Regarding GCTAATCTAATCAACCGCAGGTTGATTAGCATTAGC (structured_DNA) [DUX4_TCT_R7C], in [6], the binding result is recorded as “binds”.

Regarding GCTAACTTAACTCAACCGCAGGTTGATTAACCCGTTAGC (structured_DNA) [DUX4_CTT_F8C_R7CCC], in data set [13], the binding result was “binds”. In [11], the binding signal is ~2 fold lower affinity than single-loop DUX4_CTT_R7CCC.

Regarding TGGTGAAGCGCAAGGAAACTTAATCACAAGGTGATTAATTGTTTG (structured_DNA) [SELEX#2], the binding result in data set [5] was “binds”.

Consider AGCTAACCTAATCAACCGCAGGTTGATTAGCCCGTTAGC (structured_DNA) [DUX4_CTT_R7CCC as in T1 for S3B-C], for which the binding result in data set [14] is listed as “binds”. For GCTAATCTAATCAACCGCAGGTTGATTAGATTAGC (structured_DNA) [DUX4_TCT], the binding signal in data set [15] was ~3 fold higher IC50 than DUX4_CCT. GCTAATTTAATTAACCGCAGGTTAATTAAATTAGC (structured_DNA) [PROP1 aptamer]: the binding result in data set [16] was “binds”. GCTAACCTAATCAACCGCAGGTTGATTAGGTTAGC (structured_DNA) [DUX4_CCT]: in [17], the binding result was “binds”. For GCTAATCTAATCAACCGCAGGTTGATTAGCCCCCATTAGC (structured_DNA) [DUX4_TCT_R7CCCCC], in [6], the binding result was “binds”. On to CTAGATTAACCCGTTTACCAAGCGATGGAAACTTAATCTCCATGG (structured_DNA) [SELEX#5], for which, in data set [5], the binding result is “binds”. With GCTAATCTAATCAACCGCAGGTTGATTAGCCATTAGC (structured_DNA) [DUX4_TCT_R7CC], in data set [18], the binding result is listed as “binds”.
